B1: His-fused BIN2 (enzyme, Arabidopsis, UniProt Q39011 1-380, looked up)
chain: MADDKEMPAAVVDGHDQVTGHIISTTIGGKNGEPKQTISYMAERVVGTGSFGIVFQAKCLETGETVAIKKVLQDRRYKNRELQLMRVMDHPNVVCLKHCFFSTTSKDELFLNLVMEYVPESLYRVLKHYSSANQRMPLVYVKLYMYQIFRGLAYIHNVAGVCHRDLKPQNLLVDPLTHQVKICDFGSAKQLVKGEANISYICSRFYRAPELIFGATEYTTSIDIWSAGCVLAELLLGQPLFPGENAVDQLVEIIKVLGTPTREEIRCMNPHYTDFRFPQIKAHPWHKIFHKRMPPEAIDFASRLLQYSPSLRCTALEACAHPFFDELREPNARLPNGRPFPPLFNFKQEVAGSSPELVNKLIPDHIKRQLGLSFLNQSGT
notes: BIN2 (BRASSINOSTEROID … 2), GSK3-like kinase of Arabidopsis, cloned into the PET28a vector; Primers are in Supplementary file 1; also called BIN2-His; source: E. coli BL21 (DE3) pLySs, purified (Ni-NTA agarose)

What was measured:
GST-fused EGL3 = target: T1, GST-fused EGL3 (Arabidopsis, UniProt Q9CAD0 1-596); assay: pull-down; GST fusions bound to GST resin, BIN2-His added, 2 hr at 4°C; 10 mM phosphate buffer pH 7.4, 140 mM NaCl, 3 mM KCl, 0.1% Triton X-100; immunoblot with anti-His antibody; conditions: both partners purified
T1 construct: also called EGL3-GST; source: E. coli BL21 (DE3) pLySs, purified (glutathione resin)
T1 sequence (looked up): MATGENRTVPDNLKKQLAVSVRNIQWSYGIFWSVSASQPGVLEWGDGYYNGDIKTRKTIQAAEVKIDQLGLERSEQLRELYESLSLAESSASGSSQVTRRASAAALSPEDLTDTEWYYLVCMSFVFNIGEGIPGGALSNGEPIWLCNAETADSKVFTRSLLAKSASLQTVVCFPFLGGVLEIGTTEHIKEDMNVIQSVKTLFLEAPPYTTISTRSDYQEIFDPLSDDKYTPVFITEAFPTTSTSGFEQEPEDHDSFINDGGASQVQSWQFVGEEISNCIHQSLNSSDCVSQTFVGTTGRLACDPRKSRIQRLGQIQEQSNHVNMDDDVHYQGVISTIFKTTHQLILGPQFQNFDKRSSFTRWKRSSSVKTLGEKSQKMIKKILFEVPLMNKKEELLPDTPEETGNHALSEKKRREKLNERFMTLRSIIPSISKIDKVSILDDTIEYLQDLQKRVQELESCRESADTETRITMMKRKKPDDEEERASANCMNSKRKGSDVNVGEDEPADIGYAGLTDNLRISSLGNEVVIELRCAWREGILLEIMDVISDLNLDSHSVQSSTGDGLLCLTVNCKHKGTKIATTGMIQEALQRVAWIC

His-fused BIN2 = target: B1; assay: as above; conditions: both partners purified

B1: binds (GST-fused EGL3).

B2: WEREWOLF (WER) fused to GST (natural protein, Arabidopsis, UniProt Q9SEI0 1-203, looked up)
chain: MRKKVSSSGDEGNNEYKKGLWTVEEDKILMDYVKAHGKGHWNRIAKKTGLKRCGKSCRLRWMNYLSPNVKRGNFTEQEEDLIIRLHKLLGNRWSLIAKRVPGRTDNQVKNYWNTHLSKKLGIKDQKTKQSNGDIVYQINLPNPTETSEETKISNIVDNNNILGDEIQEDHQGSNYLSSLWVHEDEFELSTLTNMMDFIDGHCF
notes: WER (WEREWOLF), R2R3 MYB-domain transcription factor of Arabidopsis; The methods describe the cloning of only EGL3 into pGEX4T-1; the making of WER-GST is not described; also called WER-GST; source: recombinant, purified
B2: binds (His-fused BIN2).

B3: TRANSPARENT TESTA GLABRA1 (TTG1) fused to GST (natural protein, Arabidopsis, UniProt Q9XGN1 1-341, looked up)
chain: MDNSAPDSLSRSETAVTYDSPYPLYAMAFSSLRSSSGHRIAVGSFLEDYNNRIDILSFDSDSMTVKPLPNLSFEHPYPPTKLMFSPPSLRRPSSGDLLASSGDFLRLWEINEDSSTVEPISVLNNSKTSEFCAPLTSFDWNDVEPKRLGTCSIDTTCTIWDIEKSVVETQLIAHDKEVHDIAWGEARVFASVSADGSVRIFDLRDKEHSTIIYESPQPDTPLLRLAWNKQDLRYMATILMDSNKVVILDIRSPTMPVAELERHQASVNAIAWAPQSCKHICSGGDDTQALIWELPTVAGPNGIDPMSVYSAGSEINQLQWSSSQPDWIGIAFANKMQLLRV
notes: TTG1 (TRANSPARENT TESTA GLABRA1), WD40 repeat protein of Arabidopsis; The methods describe the cloning of only EGL3 into pGEX4T-1; the making of TTG1-GST is not described; also called TTG1-GST; source: recombinant, purified
B3: binds (His-fused BIN2).

Reference: paper PMC4005458, “Brassinosteroids control root epidermal cell fate via direct regulation of a MYB-bHLH-WD40 complex by GSK3-like kinases” (eLife, 2014)
